Experimental data: PMC3139646, “Synthesis and Investigation of a Radioiodinated F3 Peptide Analog as a SPECT Tumor Imaging Radioligand” (PLoS ONE, 2011)

What was measured:
[1] = tested on: MDA-MB-435 tumor-bearing athymic nude mice; details: mouse, in vivo, iv
Protocol: Kidney uptake of radioactivity (5.68%ID/g and 10.8% ID/g at 5 and 30 min respectively post-injection) was the highest among all sampled tissues confirming that renal elimination is the major excretory pathway for the radioligand (Table S1). In tumors, radioactivity levels peaked at 30 min post-injection (1.05% ID/g).
(A) Tissue distribution at 60 min post injection and reported as percent injected dose per gram of tissue (%ID/g). (B) and (C) represent the ratio of radioactivity in tumor to blood and tumor to muscle respectively at various time intervals. All the data are computed as mean +/− SEM.
Female CD-1 nude mice (nu/nu, 25–28 g) bearing MDA-MB-435 mammary fat pad tumor xenografts on opposite sides were utilized for the biodistribution studies. Four animals (N = 4) were used per time point. […] Selected tissues (blood, heart, liver, lung, spleen, adrenals, tumor, kidney, muscle, whole brain and thyroid) were harvested and tissue samples were assayed for activity using a Gamma Counter. Tissue uptake was computed as % injected dose/gram (%ID/g).
All the data are computed as mean +/− SEM. (DOCX) Click here for additional data file.

[2] = Storage stability of formulated radioligand (radio-HPLC); format: physicochemical; details: formulated in PBS:EtOH [95:5], stored at 5°C, radio-HPLC analysis
Protocol: The 3-(tri-n-butylstannyl)[…] analog 8 was obtained from the N-succinimidyl-3-(tri-n-butylstannyl)benzoate analog 7 using the approach described for the synthesis of 5 (Scheme A). […] The radioiodinated product was well resolved from the tri-n-butylstannyl starting material (Rt>25 min) under the HPLC conditions. […] The radioligand which was formulated in PBS∶EtOH [95∶5] was stable for at least 1 week when stored at 5°C (<2% radiolytic decomposition by radio-HPLC analysis).

[3] = tested on: tumor-bearing athymic nude mice; details: mouse, in vivo, iv
Text: The remaining radioactivity consisted primarily of two hydrophobic radiometabolites representing 47% and 18% of the total plasma radioactivity. […] In contrast, the parent radioligand accounted for 42% of the total radioactivity present in mouse urine samples at this time interval. The remaining radioactivity consisted of three major hydrophobic radiometabolites representing 28%, 6.8% and 10% of the total. […] This is possibly due to its high in vivo tumor affinity which results in its rapid sequestration and retention within the tumor cells in a nucleolin dependent manner.
Blood and urine samples were collected, centrifuged at 12,000 rpm for 15 min, and the supernatants transferred to a fresh centrifuge tube and the centrifugation repeated. The supernatants were treated with CH3CN and centrifuged again to precipitate proteins and the clear supernatants analyzed by radio-HPLC (Method I).

[4] = tested on: MDA-MB-435 tumor xenografts; format: in vivo, mouse
Protocol: At 4 h, kidney and bladder were not visualized likely due to voiding of urine. It is possible that the presence of urine radioactivity in kidney and bladder, at the early time intervals, could have contributed to an overestimation of tissue radioactivity uptake in these organs in the images. […] Intestinal radioactivity was clearly apparent in the 4 h images, which is most likely due to a shift in radioactivity clearance from the renal to hepatobiliary excretion pathway at later time intervals.
Mouse SPECT/CT imaging studies were performed on a GMI Tri-Modality CT/PET/SPECT small animal scanner (Gamma-Medica Ideas, Inc., Northridge, CA). SPECT images were acquired using a dual-head, high-resolution, low-energy parallel-hole collimator. CT imaging of animals was performed for anatomical co-registration and CT fusion of SPECT images were performed using AMIRA (version 3.1) software (Visage Imaging, San Diego, CA USA). Imaging was performed when tumors reached a 60–100 mm^3 average volume.

N-(2-{3-[^125I]Iodobenzoyl}aminoethyl)maleimide-F3Cys peptide [[^125I]IBMF3]
Extraction into brain [1]: 0.03 %ID/g | Radioactivity clearance from blood [1]: > 60% | Tumor-to-blood ratio [1]: 2.1 | Tumor-to-muscle ratio [1]: 4.3 | Radiolytic decomposition on storage ([2]; 1 week): < 2% | Time stable on storage [2]: at least 1 week | Hydrophobic radiometabolite (first named), share of total plasma radioactivity [3]: 47% | Hydrophobic radiometabolite (first named), share of total urine radioactivity [3]: 28% | Hydrophobic radiometabolite (second named), share of total plasma radioactivity [3]: 18% | Hydrophobic radiometabolite (second named), share of total urine radioactivity [3]: 6.8% | Hydrophobic radiometabolite (third named), share of total urine radioactivity [3]: 10% | Parent radioligand, share of total urine radioactivity [3]: 42% | Tumor uptake in SPECT images, early ([4]; 15 min post-injection, i.v. 570–610 µCi, MDA-MB-435 xenografts): distinct uptake of radioactivity in tumor as early as 15 min post-injection | Tumor visualization in SPECT images at 4 h ([4]; 4 h post-injection, i.v. 570–610 µCi, MDA-MB-435 xenografts): visualized in the SPECT images at 4 h although at lower levels | Tumor radioactivity in SPECT images at later time intervals ([4]; >4 h post-injection, i.v., MDA-MB-435 xenografts): substantial clearance at later time intervals | Thyroid uptake in SPECT images (in vivo deiodination) ([4]; mouse, in vivo, iv): Moderate radioactivity uptake was seen in thyroid
